Measurements as given in IntAct's records for PubMed 16280327.

B1: B-cell lymphoma/leukemia 10 (Homo sapiens), O95999 (parent)
chain: MEPTAPSLTEEDLTEVKKDALENLRVYLCEKIIAERHFDHLRAKKILSREDTEEISCRTSSRKRAGKLLDYLQENPKGLDTLVESIRREKTQNFLIQKITDEVLKLRNIKLEHLKGLKCSSCEPFPDGATNNLSRSNSDESNFSEKLRASTVMYHPEGESSTTPFFSTNSSLNLPVLEVGRTENTIFSSTTLPRPGDPGAPPLPPDLQLEEEGTCANSSEMFLPLRSRTVSRQ
partner: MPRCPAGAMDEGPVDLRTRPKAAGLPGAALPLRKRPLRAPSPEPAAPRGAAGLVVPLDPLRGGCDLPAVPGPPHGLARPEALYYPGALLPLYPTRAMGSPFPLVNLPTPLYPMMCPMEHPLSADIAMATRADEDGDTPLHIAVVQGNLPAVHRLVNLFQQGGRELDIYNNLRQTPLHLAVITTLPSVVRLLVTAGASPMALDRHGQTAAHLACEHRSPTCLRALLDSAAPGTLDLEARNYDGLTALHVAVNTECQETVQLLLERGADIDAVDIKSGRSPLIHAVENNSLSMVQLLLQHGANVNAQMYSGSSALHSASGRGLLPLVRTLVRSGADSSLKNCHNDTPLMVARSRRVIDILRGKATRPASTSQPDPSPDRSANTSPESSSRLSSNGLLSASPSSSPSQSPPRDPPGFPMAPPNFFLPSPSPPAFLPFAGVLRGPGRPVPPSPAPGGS

Variants of: B1
Conditions: with bcl3_human BCL3, P20749

effect of a mutation on the interaction | Variant
increasing interaction | S218D
increasing interaction | S231D
